# Measured values taken from publication PMC7615710, “ASPP2 binds to hepatitis C virus NS5A protein via an SH3 domain/PxxP motif-mediated interaction and potentiates infection” (The Journal of general virology, 2023).
# B1: ASPP1 C-terminal domain (887-1090) (domain or fragment)
# chain: NPLALLLDASLEGEFDLVQRIIYEVEDPSKPNDEGITPLHNAVCAGHHHIVKFLLDFGVNVNAADSDGWTPLHCAASCNSVHLCKQLVESGAAIFASTISDIETAADKCEEMEEGYIQCSQFLYGVQEKLGVMNKGVAYALWDYEAQNSDELSFHEGDALTILRRKDESETEWWWARLGDREGYVPKNLLGLYPRIKPRQRTLA
# notes: also called ASPP1 CTD
# B2: ASPP2 C-terminal domain (925-1128) (domain or fragment)
# chain: NPLALLLDSSLEGEFDLVQRIIYEVDDPSLPNDEGITALHNAVCAGHTEIVKFLVQFGVNVNAADSDGWTPLHCAASCNNVQVCKFLVESGAAVFAMTYSDMQTAADKCEEMEEGYTQCSQFLYGVQEKMGIMNKGVIYALWDYEPQNDDELPMKEGDCMTIIHREDEDEIEWWWARLNDKEGYVPRNLLGLYPRIKPRQRSLA
# notes: also called ASPP2 CTD
# How the values were obtained:
# Experiment in all cases: ITC; 450 or 300 uM NS5A PRR peptide (syringe) titrated to 30 uM ASPP CTD or SH3 domain (cell), 12 °C, 25 mM HEPES pH 7.5, 150 mM NaCl, 500 uM TCEP; 25 steps of 10 ul; AB hetero association model (SEDPHAT)
# Conditions in all cases: both partners purified
# [1] = molecular target: B1
# [2] = molecular target: B2
# [3] = molecular target: T1, HCV [1a.1] NS5A PRR peptide (Hepatitis C virus genotype 1a (strain 1))
# T1 construct: source: synthetic peptide, custom made (TUCF)
Binder,Kd [1],Kd [2],Kd [3]
"WLPPPKKAPTPPPRRRRTVGL (also called NS5A (2a); NS5A PRR peptide (JFH-1); source: synthetic peptide, custom made (TUCF)) [HCV [2a.JFH-1] NS5A PRR peptide]",3.78 µM,0.0424 µM,–
"WLPPAKQPPVPSPRRKRTVQL (source: synthetic peptide, custom made (TUCF)) [HCV [4a.ED43] NS5A PRR peptide]",42.8 µM,0.741 µM,–
Fyn SH3 domain (85-142) (domain or fragment) not shown,–,–,5.89 µM
"WLPPAKAPPIPPPRRKRTVVL (source: synthetic peptide, custom made (TUCF)) [HCV [1b.Con1] NS5A PRR peptide]",6.7 µM,0.0758 µM,–
Grb2 SH3 domain (1-58) (domain or fragment) MEAIAKYDFKATADDELSFKRGDILKVLNEECDQNWYKAELNGKDGFIPKNYIEMKPH,–,–,7.96 µM
B1,–,–,9.27 µM
B2,–,–,0.234 µM
LASP1 SH3 domain (205-261) (domain or fragment) KRYRAVYDYSAADEDEVSFQDGDTIVNVQQIDDGWMYGTVERTGDTGMLPANYVEAI,–,–,2.3 µM
Lyn SH3 domain (65-122) (domain or fragment) GDIVVALYPYDGIHPDDLSFKKGEKMKVLEEHGEWWKAKSLLTKKEGFIPSNYVAKLN,–,–,5.1 µM
